{"source": "patent US20180305451A1", "about": "(COMPUGEN, published 2018)", "binders": {"B1": {"name": "CPA.12.002 human IgG4 (antibody, V domains shown)", "VH": "EVQLVESGGGLVQPGRSLRLSCAASGFTFSSYAMHWVRQVPGKGLEWVAVISYDGSNKYYADSVKGRFTISRDNSKNTLYLQMNSLRAEDTAVYYCAKPMYSSGWYPLGYWGQGTLVTVSS", "VL": "DIVMTQTPLSLPVTPGQPASISCRSSQSPLDTDGNTYLDWYLQRPGQSPQLLIYTLSNRASGVPDRFSGSGSGTDFTLKISRVEAEDVGIYYCMQRIQYPLTFGPGTRLEIKR", "notes": "also called CPA.12.002-H4"}, "B2": {"name": "CPA.12.001 human IgG4 (antibody, V domains shown)", "VH": "QVQLVESGGGLVQPGRSLRLSCAASGFTFSSYGMHWVRQAPGKGLEWVAVISYDGSNKYYADSVKGRFTISRDNSKNTLYLQMNSLRAEDTAVYYCASEGVDFWSGLDYWGQGTLVTVSS", "VL": "QSALTQPRSASGSAGQSVTISCTGTSSDVGGHNYVSWYQQFPGKAPKLLIYEVSHRPSGVPDRFSGSKSGNTASLTVSGLQAEDEADYYCSSYADLNNLMFGGGTKLTVLG", "notes": "also called CPA.12.001-H4"}, "B3": {"name": "CPA.12.005 human IgG4 (antibody, V domains shown)", "VH": "QVQLVESGGGVVQPGRSLRVSCAVSGFTFSSYGMHWVRQAPGGGLEWVAVMSYEGSFRHYADSVKGRFTISRDNSKNTLFLQMDSLRAEDTAVYYCARDRPAGYTSGWGILDYWGQGTLVTVSS", "VL": "EIVMTQSPATLSLSPGERATLSCRASQSVSSYLAWYQQKPGQAPRLLIYDASNRATGIPARFSGSGSGTDFTLTISSLEPEDFAVYYCQQRSNWPLTFGGGTKVDIKR", "notes": "also called CPA.12.005-H4"}, "B4": {"name": "CPA.12.004 human IgG4 (antibody, V domains shown)", "VH": "EVQLVETGGGLIQPGRSLRLSCVASDFRFSNHAMHWVRQAPGKELEWVAVISSDGSNRQYAYSVKGRFTISRDNSKNTLYLEMNILGPEDTAVYFCVRSHLGPEWYYGMDVWGQGTTVTVSS", "VL": "DIQMTQSPSSLSTSVGDSVTITCRSSQSISTFLSWFQHKPGKAPNLLIYDASSLQSGVPSRFSGSGSGTDFTLTISSLQPEDFATYYCQQSDYLPFTFGPGTKVEIKR", "notes": "also called CPA.12.004-H4"}, "B5": {"name": "CPA.12.003 human IgG4 (antibody, V domains shown)", "VH": "QVQLQESGPGLVTPSETLSLTCTVSGGSISSVSYYWGWVRQPPGKGLEWIGSIYYSGTTAHNPSLKSRVTMAVDTSKNQFSLSLSSVTAADTAVYFCARGWRYYEDYYFDHWGQGTLVTVSS", "VL": "DIQMTQSPSTLSASVGDRVTITCRASQSINRWLAWYQQKPGKAPKILIYTASSLESGVPSRFSGSGSGTEFTLTISSLQPDDFATYYCQQYNSYPITFGQGTRLEIKR", "notes": "also called CPA.12.003-H4"}, "B6": {"name": "CPA.12.011 Fab (B03 S400-01.E01) (Fab, V domains shown)", "VH": "EVQLVESGGGLVQPGGTLRLSCVVSGFTFSSYAMSWVRQAPGKGLEWVSGISGSGGSTYISSGRTYRSTYYADSVKGRFTIARDNSENTLFLQLNSLRAEDTAIYYCAKVNSGEYAHTFDYWGQGTLVTVSS", "VL": "DIQMTQSPSSLSASVGDRVTITCRASQGISNYLVWYQQKPGKAPKSLIYAASSLQSGVPSRFSGSGSGTDFTLTISSLQPEDFATYYCQQYNYYPITFGQGTRLEIKR", "notes": "XOMA031 library Fab in periplasmic extract"}, "B7": {"name": "CPA.12.002 Fab (A02 S397-01.A08) (Fab, V domains shown)", "VH": "B1 VH", "VL": "B1 VL", "notes": "as for B6"}, "B8": {"name": "CPA.12.001 Fab (A01 S397-01.A04) (Fab, V domains shown)", "VH": "B2 VH", "VL": "B2 VL", "notes": "as for B6"}, "B9": {"name": "CPA.12.007 Fab (A08 S398-01.E08) (Fab, V domains shown)", "VH": "EVQLVESGGGVVQPGESLRLSCAASGFTFSSYGFHWVRQSPGEGLEWLAVISYDGTSKSYADSVKGRFTVSRDNSKETLYLQLSSLRREDTALYYCARDTWGYYYGMDVWGQGTTVTVSS", "VL": "DIQMTQSPSFLSGSVGDRVSISCRASQDIRSHLAWYQRKPGEAPKLLIYTASSLQGGVPLRFSGSGSGTEFTLTISSLQPEDSATYYCQHLHLYPLTFGGGTKLEIKR", "notes": "as for B6"}, "B10": {"name": "CPA.12.005 Fab (A06 S397-01.H07) (Fab, V domains shown)", "VH": "B3 VH", "VL": "B3 VL", "notes": "as for B6"}, "B11": {"name": "CPA.12.014 Fab (B12 S404-01.E06) (Fab, V domains shown)", "VH": "QVTLKESGPALVTPTQNLTLTCTVSGGSISSSSYYWGWIRQPPGKGLEWIGSIYYSGSTYYNPSLKSRVTISVDTSKNQFSLKLSSVTAADTAVYYCARRRNSSGWFYFDYWGQGTLVTVSS", "VL": "QSVLTQPPSVSGAPRQRVTISCSGSRSNIGDNAVNWYQHPPGKAPKLLIYYDDLLPSGVSDRFSGSKSGTSASLAISGLQSEDEADYYCATWDDSLNGHVFGTGTKLTVLG", "notes": "as for B6"}, "B12": {"name": "CPA.12.009 Fab (A10 S398-02.A04) (Fab, V domains shown)", "VH": "QMQLVQSGAEVKKPGASVKVSCKASGYTFTTHAFSWVRQAPGLGLEWMGWISTYNGNTKYEQKFQGRVTLTTDSSTNTAYMELRSLRSDDTAVYYCVRDSRAFDVWGQGTMVTVSS", "VL": "DIQLTQSPSFLSASVGDRVTITCRASQGINSYLAWYQQKPGAAPKLLIYAASTLQSGVPSRFSGSGSGTEFTLTISSLQPEDFATYYCQQLNTYPLIFGQGTRLEIKR", "notes": "as for B6"}, "B13": {"name": "CPA.12.006 Fab (A07 S398-01.D09) (Fab, V domains shown)", "VH": "EVQLVESGGGVVQPGRSLRLSCAASGFTFSSFAMHWVRQAPGKGPEWLGIILYEGGHVVYADSVRGRLTISRDNSKNTLYLQMDSLRDEDTAVYYCAKGFYHAFDVWGQGTMVTVSS", "VL": "QAVLTQPASLSASPGASASLTCTLRSGINVGTYRIYWYQQKPGSPPQYLLRYKSDSDKQQGSGVPSRFSGSKDASANAGILLISGLQSEDEADYYCMIWHSSAWVFGGGTQLTVLG", "notes": "as for B6"}, "B14": {"name": "CPA.12.004 Fab (A04 S397-01.D06) (Fab, V domains shown)", "VH": "B4 VH", "VL": "B4 VL", "notes": "as for B6"}, "B15": {"name": "CPA.12.003 Fab (A03 S397-01.A12) (Fab, V domains shown)", "VH": "B5 VH", "VL": "B5 VL", "notes": "as for B6"}}}
{"target": "T1, mouse HIDE1 (mouse, UniProt Q75VT8 22-222)", "T1 construct": "Endogenous on EL4, YAC-1, J774A.1/J774A.2 cells; also called AB124611; mHIDE1", "T1 sequence": "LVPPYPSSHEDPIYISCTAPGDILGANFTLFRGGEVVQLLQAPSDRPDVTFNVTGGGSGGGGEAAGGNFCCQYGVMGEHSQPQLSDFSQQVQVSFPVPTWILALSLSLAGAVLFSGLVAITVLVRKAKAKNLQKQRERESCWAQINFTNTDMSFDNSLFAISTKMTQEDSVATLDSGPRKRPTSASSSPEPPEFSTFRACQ", "assay": "FACS on 293T-moHIDE1 cells, human IgG4", "description": "(§1) FACS screening of reformatted IgG4 antibodies: The cell lines described in paragraph [001066] (“FACS screening of PPE”) were mixed with FACS buffer containing the purified anti-HIDE1 IgGs or isotype controls. […] Cells were washed again and fluorescence was detected using an Intellicyt HTFC screening system (Intellicyt). Data were analyzed using FCS Express (DeNovo) and plotted for affinity calculations (KD) in GraphPad Prism (GraphPad Software, Inc.). Note that each anti-HIDE1 antibody was tested over a titration range from 0-80 μg/mL.\n(§2) Overview of FACS binding results for human IgG4 antibodies reformatted from Fab screening hits. […] IgGs from the same H-CDR3 family are indicated by the same color, either blue or green. CPA.12.003 & CPA.12.008 have identical heavy chain CDR-3 regions and minor differences in framework regions or other CDRs. The same holds for CPA.12.004 & CPA.12.013. N.B. not binding."}
{"binder": "B1", "binding result": "no binding (tested: titration 0-80 µg/mL)"}
{"binder": "B2", "binding result": "no binding (tested: titration 0-80 µg/mL)"}
{"binder": "B3", "binding result": "no binding (tested: titration 0-80 µg/mL)"}
{"binder": "B4", "binding result": "no binding (tested: titration 0-80 µg/mL)"}
{"binder": "B5", "binding result": "no binding (tested: titration 0-80 µg/mL)"}
{"target": "T2, human HIDE1 (human, UniProt A8MVS5 20-230)", "T2 construct": "Endogenous on U937, HL-60, THP-1 cells, blood monocytes, AML blasts and dendritic cells; also called C19orf38; hHIDE1", "T2 sequence": "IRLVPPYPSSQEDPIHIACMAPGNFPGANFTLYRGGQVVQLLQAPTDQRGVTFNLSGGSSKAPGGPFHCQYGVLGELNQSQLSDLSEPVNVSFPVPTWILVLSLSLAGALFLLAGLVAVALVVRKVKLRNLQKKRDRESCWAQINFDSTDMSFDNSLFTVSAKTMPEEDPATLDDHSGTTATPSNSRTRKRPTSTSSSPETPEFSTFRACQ", "assay": "FACS titration on 293T-huHIDE1 cells, human IgG4 (preliminary FACS KD)", "description": "as §1, §2", "units": {"Kd": "nM"}}
{"binder": "B1", "Kd": 6.4}
{"binder": "B2", "Kd": 61}
{"binder": "B3", "Kd": 4}
{"binder": "B4", "Kd": 1.4}
{"binder": "B5", "Kd": 18}
{"target": "T3, HIDE1_HH-1 (Human ECD + human IgG1 Fc mutated C220S at hinge), without SP (human)", "T3 construct": "Batch #280 in the Serotec and phage display work; also called HIDE1 hECD-hIg; HIDE1 (H:H) recombinant Fc fusion protein", "T3 sequence (chain, as listed by the source C220S C220S limits assumed)": "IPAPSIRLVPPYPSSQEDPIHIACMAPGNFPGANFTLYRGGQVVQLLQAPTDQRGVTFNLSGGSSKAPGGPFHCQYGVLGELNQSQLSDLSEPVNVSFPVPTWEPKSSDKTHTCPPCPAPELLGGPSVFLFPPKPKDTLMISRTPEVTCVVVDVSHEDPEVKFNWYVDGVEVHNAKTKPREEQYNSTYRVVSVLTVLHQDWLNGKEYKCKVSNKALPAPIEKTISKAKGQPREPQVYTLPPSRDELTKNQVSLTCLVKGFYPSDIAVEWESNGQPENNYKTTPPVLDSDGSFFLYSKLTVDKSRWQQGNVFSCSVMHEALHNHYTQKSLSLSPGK", "assay": "SPR (ProteOn), Fab PPE over captured HIDE1-HH-1, 1:1 fit", "description": "Preliminary Fab binding kinetics were determined using Fab PPEs produced as described in paragraph [001064] (“Fab PPE production”)[001064]. Studies were conducted using Biacore 3000 and ProteOn XPR 36 instruments at 22° C.\nA high density goat anti-human Fc antibody (Invitrogen) was immobilized by standard amine coupling over all lanes of a GLC chip using a ProteOn XPR 36 biosensor (Biorad). This surface was used to capture the recombinant HIDE1-H:H fusion protein (GenScript Lot 393383-21, batch #280) or a control Fc fusion protein (CD155, Sino Biologicals) in the vertical flow-cell direction at a concentration of ˜0.5 μg/mL for 90 seconds.", "units": {"Kd": "nM", "koff": "s⁻¹", "kon": "M⁻¹ s⁻¹"}}
{"binder": "B6", "Kd": 0.64, "koff": 0.00019, "kon": 290000}
{"binder": "B7", "Kd": 8, "koff": 0.00083, "kon": 100000}
{"binder": "B8", "Kd": 1.2, "koff": 0.00081, "kon": 670000}
{"binder": "B9", "Kd": 1.6, "koff": 0.00034, "kon": 210000}
{"binder": "B10", "Kd": 2.3, "koff": 0.001, "kon": 440000}
{"binder": "B11", "Kd": 37, "koff": 0.0037, "kon": 99000}
{"binder": "B12", "Kd": 1, "koff": 0.0014, "kon": "1.4e+06"}
{"binder": "B13", "Kd": 3.9, "koff": 0.00027, "kon": 68000}
{"binder": "B14", "Kd": 2.1, "koff": 0.0033, "kon": "1.6e+06"}
{"binder": "B15", "Kd": 0.91, "koff": 0.00022, "kon": 250000}
